K half data for one sequence are collected here from article PMC11363328.

This data set addresses DDX3X (UniProt O00571). Kind of data set: fluorescence polarization, protein titration. To be noted: FP: 14.4 mM HEPES-KOH pH 8, 108 mM NaCl, 1 mM MgCl2, 14.4% glycerol, 0.1% DMSO, 2 mM DTT, 1 mM ATP, 10 nM probe, room temperature, 10 min. For orientation: In fluorescence polarisation assays a small probe gives low polarisation when free and higher when bound to something large.

Chain of DDX3X (O00571 132-607): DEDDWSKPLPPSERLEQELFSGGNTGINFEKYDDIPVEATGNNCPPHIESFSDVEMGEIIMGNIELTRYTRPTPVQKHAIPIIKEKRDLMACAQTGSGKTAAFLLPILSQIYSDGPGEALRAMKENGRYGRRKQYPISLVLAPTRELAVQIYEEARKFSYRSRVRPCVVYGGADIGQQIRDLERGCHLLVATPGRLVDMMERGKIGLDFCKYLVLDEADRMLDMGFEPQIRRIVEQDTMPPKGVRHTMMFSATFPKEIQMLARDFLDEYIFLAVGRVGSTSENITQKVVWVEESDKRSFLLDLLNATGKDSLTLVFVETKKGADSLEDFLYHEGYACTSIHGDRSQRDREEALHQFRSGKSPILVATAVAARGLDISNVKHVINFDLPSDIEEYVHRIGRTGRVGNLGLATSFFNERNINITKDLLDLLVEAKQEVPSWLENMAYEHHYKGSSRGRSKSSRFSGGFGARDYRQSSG

In turn, AGAGAGAGAGAGAGAG [FAM-r(AG)8] had a K half of 2800 nM.
